Substrate: Cc1cc(=O)oc2cc(O[C@@H]3O[C@@H](C(=O)O)[C@@H](O)[C@H](O)[C@H]3O)ccc12
Experiment: purified protein

Protein | Km [µM]
α-L-iduronidase (IDUA) (Homo sapiens) (protein) APHLVHVDAARALWPLRRFWRSTGFCPPLPHSQADQYVLSWDQQLNLAYVGAVPHRGIKQVRTHWLLELVTTRGSTGRGLSYNFTHLDGYLDLLRENQLLPGFELMGSASGHFTDFEDKQQVFEWKDLVSSLARRYIGRYGLAHVSKWNFETWNEPDHHDFDNVSMTMQGFLNYYDACSEGLRAASPALRLGGPGDSFHTPPRSPLSWGLLRHCHDGTNFFTGEAGVRLDYISLHRKGARSSISILEQEKVVAQQIRQLFPKFADTPIYNDEADPLVGWSLPQPWRADVTYAAMVVKVIAQHQNLLLANTTSAFPYALLSNDNAFLSYHPHPFAQRTLTARFQVNNTRPPHVQLLRKPVLTAMGLLALLDEEQLWAEVSQAGTVLDSNHTVGVLASAHRPQGPADAWRAAVLIYASDDTRAHPNRSVAVTLRLRGVPPGPGLVYVTRYLDNGLCSPDGEWRRLGRPVFPTAEQFRRMRAAEDPVAAAPRPLPAGGRLTLRPALRLPSLLLVHVCARPEKPPGQVTRLRALPLTQGQLVLVWSDEHVGSKCLWTYEIQFSQDGKAYTPVSRKPSTFNLFVFSPDTGAVSGSYRVRALDYWARPGPFSDPVPYLEVPVPRGPPSPGNP | 27.0 ± 2.3
α-L-iduronidase (IDUA) (Homo sapiens; P533R) (protein) APHLVHVDAARALWPLRRFWRSTGFCPPLPHSQADQYVLSWDQQLNLAYVGAVPHRGIKQVRTHWLLELVTTRGSTGRGLSYNFTHLDGYLDLLRENQLLPGFELMGSASGHFTDFEDKQQVFEWKDLVSSLARRYIGRYGLAHVSKWNFETWNEPDHHDFDNVSMTMQGFLNYYDACSEGLRAASPALRLGGPGDSFHTPPRSPLSWGLLRHCHDGTNFFTGEAGVRLDYISLHRKGARSSISILEQEKVVAQQIRQLFPKFADTPIYNDEADPLVGWSLPQPWRADVTYAAMVVKVIAQHQNLLLANTTSAFPYALLSNDNAFLSYHPHPFAQRTLTARFQVNNTRPPHVQLLRKPVLTAMGLLALLDEEQLWAEVSQAGTVLDSNHTVGVLASAHRPQGPADAWRAAVLIYASDDTRAHPNRSVAVTLRLRGVPPGPGLVYVTRYLDNGLCSPDGEWRRLGRPVFPTAEQFRRMRAAEDPVAAAPRPLPAGGRLTLRPALRLRSLLLVHVCARPEKPPGQVTRLRALPLTQGQLVLVWSDEHVGSKCLWTYEIQFSQDGKAYTPVSRKPSTFNLFVFSPDTGAVSGSYRVRALDYWARPGPFSDPVPYLEVPVPRGPPSPGNP | 35.3 ± 3.66

Reference: PMC4954775
